Test [1] addresses T1, taxol-stabilized microtubules (tubulin) (Sus scrofa, UniProt P02550).
T1 chain 1: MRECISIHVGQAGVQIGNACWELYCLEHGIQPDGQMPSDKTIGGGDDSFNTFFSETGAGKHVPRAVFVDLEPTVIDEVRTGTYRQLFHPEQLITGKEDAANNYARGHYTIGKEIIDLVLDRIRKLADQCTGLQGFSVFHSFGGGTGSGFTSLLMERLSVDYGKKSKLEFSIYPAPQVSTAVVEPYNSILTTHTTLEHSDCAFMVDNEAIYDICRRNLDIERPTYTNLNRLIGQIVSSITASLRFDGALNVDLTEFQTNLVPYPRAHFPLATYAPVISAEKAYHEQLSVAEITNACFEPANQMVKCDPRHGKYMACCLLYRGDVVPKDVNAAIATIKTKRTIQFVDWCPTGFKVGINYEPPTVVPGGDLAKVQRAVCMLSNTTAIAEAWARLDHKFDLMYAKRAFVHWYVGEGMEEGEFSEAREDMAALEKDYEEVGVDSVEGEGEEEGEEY
T1 chain 2: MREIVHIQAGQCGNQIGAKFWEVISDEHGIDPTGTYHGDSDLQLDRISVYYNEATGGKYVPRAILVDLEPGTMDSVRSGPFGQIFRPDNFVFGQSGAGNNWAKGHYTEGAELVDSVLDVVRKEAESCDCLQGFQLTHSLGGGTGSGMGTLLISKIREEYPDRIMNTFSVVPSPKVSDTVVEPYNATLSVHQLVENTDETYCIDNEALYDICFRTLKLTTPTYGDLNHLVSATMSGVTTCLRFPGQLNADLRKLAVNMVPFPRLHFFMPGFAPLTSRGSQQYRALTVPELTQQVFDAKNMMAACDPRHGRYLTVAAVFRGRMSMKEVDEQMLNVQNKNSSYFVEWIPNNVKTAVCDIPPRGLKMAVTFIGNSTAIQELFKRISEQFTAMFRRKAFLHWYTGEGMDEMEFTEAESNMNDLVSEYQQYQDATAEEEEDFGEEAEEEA
The experiment in a line: TIRF microscopy, Hill fit (no added salt).

Test [2] deals with T1, taxol-stabilized microtubules (tubulin). The experiment in a line: TIRF microscopy, Hill fit (150 mM salt).

B1: HURP 1-285 (protein)
chain: MSSSHFASRHRKDISTEMIRTKIAHRKSLSQKENRHKEYERNRHFGLKDVNIPTLEGRILVELDETSQGLVPEKTNVKPRAMKTILGDQRKQMLQKYKEEKQLQKLKEQREKAKRGIFKVGRYRPDMPCFLLSNQNAVKAEPKKAIPSSVRITRSKAKDQMEQTKIDNESDVRAIRPGPRQTSEKKVSDKEKKVVQPVMPTSLRMTRSATQAAKQVPRTVSSTTARKPVTRAANENEPEGKVPSKGRPAKNVETKPDKGISCKVDSEENTLNSQTNATSGMNPDG
modifications: C-terminal eGFP fusion, taxol-stabilized microtubules
As a reminder, the Kd is the concentration at which binding is half-saturated. Regarding B1, the Kd in test [1] was roughly 29 nM; in test [2], roughly 300 nM.

(Values after article PMC11549086 (2024).)
